Measured values published in patent US20230295324A1 (published 2023).

Columns and labels:
[1] = biological target: T1, human CD40 on CHO-K1 cells (CHO-K1/hu CD40) (human, UniProt P25942 21-277); assay: flow cytometry on CHO-K1/hu CD40 cells
T1 construct: whole, on cells
Experimental: (§1) This example is intended to investigate the specificity of in vitro binding of anti-human OX40 HCAb monoclonal antibodies by detecting 3 receptors of the TNF tumor necrosis factor receptor superfamily and ICOS by flow cytometry. The antibody binding assay at the cellular level was performed using a CHO-K1 cell strain overexpressing human OX40 (CHO-K1/hu OX40), a CHO-K1 cell strain overexpressing human CD40 (CHO-K1/hu CD40, Beijing KYinno, #KC-1286), a CHO-K1 cell strain overexpressing human 4-1BB (CHO-K1/hu 4-1BB, Genscript, #M00538) and an HEK293 cell strain overexpressing human ICOS (HEK293T/ICOS, Genscript, #KC-0210). Briefly, these cells were digested and resuspended in F12K or DMEM complete medium, and the cell density was adjusted to 1×10⁶ cells/mL. The cells were seeded in a 96-well V-bottom plate at 100 μL/well, and centrifuged, and then the supernatant was discarded. Then, the test antibodies diluted in a 3-fold gradient were added at 100 μL/well. The cells were incubated at 4° C. for 1 h away from light. Thereafter, the cells in each well were rinsed twice with 100 μL of pre-cooled PBS, and centrifuged at 500 g at 4° C. for 5 min, and then the supernatant was discarded. […] Finally, the cells in each well were resuspended in 200 μL of pre-cooled PBS, and the fluorescence signal values were read using NovoCyte flow cytometer (ACEA Biosciences).

[2] = biological target: T2, human 4-1BB on CHO-K1 cells (CHO-K1/hu 4-1BB) (human, UniProt Q07011 24-255); assay: flow cytometry on CHO-K1/hu 4-1BB cells
T2 construct: whole, on cells
Experimental: as §1

[3] = biological target: T3, human OX40 on cells (CHO-K1/hu OX40) (human, UniProt P43489 29-277); assay: FACS, blocking of biotin-human OX40L on CHO-K1/hu OX40 cells
T3 construct: whole, on cells; Also used here for OX40 on the HEK293/OX40/NF-kb reporter cells and on human T cells in the functional assays; also called CHO-K1/OX40; human OX40 cells
T3 sequence (looked up): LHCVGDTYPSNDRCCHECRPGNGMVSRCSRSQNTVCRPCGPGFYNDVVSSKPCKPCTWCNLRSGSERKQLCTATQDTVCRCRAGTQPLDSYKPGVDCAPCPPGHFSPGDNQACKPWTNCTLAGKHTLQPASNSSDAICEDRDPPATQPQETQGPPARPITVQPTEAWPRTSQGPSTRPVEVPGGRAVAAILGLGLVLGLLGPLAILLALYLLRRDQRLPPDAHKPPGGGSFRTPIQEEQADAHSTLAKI

[4] = biological target: T3, human OX40 on cells (CHO-K1/hu OX40); assay: cell-based or functional assay
[5] = biological target: T4, cynomolgus monkey OX40 protein (Novoprotein, #CB17) (cynomolgus monkey); assay: ELISA, coated cyno OX40 protein
T4 construct: Bought recombinant protein; also called cyno OX40

T1 sequence (P25942 21-277): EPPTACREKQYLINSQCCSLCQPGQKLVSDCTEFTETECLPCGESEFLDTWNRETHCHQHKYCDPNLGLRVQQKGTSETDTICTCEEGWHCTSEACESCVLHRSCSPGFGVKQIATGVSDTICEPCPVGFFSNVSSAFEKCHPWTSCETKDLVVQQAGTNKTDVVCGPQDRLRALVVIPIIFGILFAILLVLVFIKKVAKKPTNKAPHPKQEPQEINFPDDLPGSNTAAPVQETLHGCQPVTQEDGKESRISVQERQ
T2 sequence (Q07011 24-255): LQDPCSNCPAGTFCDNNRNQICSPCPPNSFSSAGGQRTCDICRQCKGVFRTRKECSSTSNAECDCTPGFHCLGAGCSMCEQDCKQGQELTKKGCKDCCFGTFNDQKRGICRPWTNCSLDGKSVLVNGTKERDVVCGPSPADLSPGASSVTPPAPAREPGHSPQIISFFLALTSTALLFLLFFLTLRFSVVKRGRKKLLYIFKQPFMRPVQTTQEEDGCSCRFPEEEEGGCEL

- binding result [1]: no binding
- binding result [2]: no binding
- IC50 [3]: 166 nM
- Maximum inhibition rate (%) [3]: 64%
- EC50, IFN-γ release by human T cells with OKT3 and CHO-K1-CD32b cells [4]: 0.0863 nM
- Maximum IFN-γ release value [4]: 2000
- EC50 [5]: 0.232 nM
- Maximum OD [5]: 2.16 OD
B1: PR002067 (antibody, human IgG1, V domains shown)
VH: EVQLLESGGGLVQPGGSLRLSCAASGFTFSSYAMSWVRQAPGKGLEWVSAISGRGGSTFYADSVRGRFTISRDNSKNTLYLQMNSLRAEDTAMYYCVDGTTGTTDVDYWGQGTLVTVSS
notes: no light chain; also called anti-OX40 HCAb antibody
